Measurements as given in US20130101582A1, “Tiki1 and Tiki2, Wnt Inhibitors” (CHILDREN'S MEDICAL CENTER CORPORATION, priority 2010, published 2013).

Legend:
[1] = test system: nuclear beta-catenin; assay: Wnt-induced nuclear beta-catenin accumulation in Xwnt8-responding animal cap cells; type: in vivo, Xenopus; conditions: stage 9 animal cap cells neighbouring Xwnt8-expressing cells; 200 pg mRNA
Method: FIGS. 7A-C are each schematics with accompanying bar graphs showing that Tiki1 inhibits Wnt/β-catenin signaling in both Wnt-producing and Wnt-responding cells. 7A, Tiki1 acts in Xwnt8-producing cells. Xwnt8 mRNA (20 pg) was co-injected with Tiki1 or LDLR mRNA (100 pg) into a single blastomere at the 8-cell stage, while S01234-Luciferase (140 pg) plus TK-Renilla (1.25 pg) reporter DNAs were injected into a neighboring blastomere. 7B, Tiki1 acts in Xwnt8-responding cells. S01234-Luciferase and TK-Renilla reporter DNAs were co-injected with Tiki1 or LDLR mRNA in a single blastomere, while Xwnt8 mRNA was injected into a neighboring blastomere. Luciferase readings were normalized to Renilla. 7C, Tiki1 reduces nuclear beta-catenin levels in Xwnt8-responding cells. […] Only cells within the distance of five cell bodies from Xwnt8-expressing cells were counted in any given field. […]
Secondly Wnt-induced nuclear beta-catenin accumulation was monitored. […] In confocal microscopy Xwnt8-expressing cells were traced by RFP (red), whereas Wnt-responding cells that expressed Tiki1 or LDLR were traced by FLD (green), and naive cells descended from uninjected blastomeres lacked green or red fluorescence. […]

[2] = test system: Super-TOPFLASH (STF) luciferase reporter; assay: Super-TOPFLASH (STF) luciferase reporter induction in STF cells; type: cell-based; conditions: 6-hour treatment; not shown
Method: A high throughput screen (HTS) is used to identify compounds that enhance LRP5/6 signaling as potential therapeutics for osteoporosis or cellular proliferative disorders. We employ a Wnt responsive cell line carrying a Super-TOPFLASH (STF) luciferase reporter (Wnt-responsive) (Major et al. Science. 2007. 316:1043-6). These STF cells grow as an adherent monolayer making them ideally suited for 384-well-plate screening format. […] Different conditions are tested and an acceptable z′ score of 0.5 or above (z′ measures HTS quality and reproducibility (Zhang et al. J Biomol Screen. 1999. 4:67-73)) is achieved.

[3] = target: Wnt3a (Mus musculus, UniProt P27467); assay: Triton X-114 phase separation of Wnt3a secreted from Tiki-expressing cells; type: cell-based; parameters: expressed in transfected cells; host or cells: mouse L cells (Wnt3a-expressing); HEK293T; conditions: HEK293T cells
Chain of Wnt3a (P27467 19-352): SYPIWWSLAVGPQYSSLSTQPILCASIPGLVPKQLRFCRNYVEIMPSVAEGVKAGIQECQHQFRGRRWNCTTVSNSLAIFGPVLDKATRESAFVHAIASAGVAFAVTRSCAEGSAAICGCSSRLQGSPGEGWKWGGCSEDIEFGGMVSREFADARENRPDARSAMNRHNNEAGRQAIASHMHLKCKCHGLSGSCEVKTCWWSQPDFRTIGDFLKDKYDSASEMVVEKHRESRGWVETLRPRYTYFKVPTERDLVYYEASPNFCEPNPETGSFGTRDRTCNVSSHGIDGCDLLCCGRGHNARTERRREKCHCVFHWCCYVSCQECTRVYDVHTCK
Text: FIG. 6A is a gel showing that Tiki inactivates Wnt3a by regulating Wnt3a acylation/palmitoylation. A Triton X-114 phase separation experiment is shown in 6A. […] T, total; Aq, aqueous; De, detergent.
FIG. 6B is a gel showing that Wnt3a secreted from Tiki1 or Tiki2 but not GFP-expressing HEK293T cells partitioned in the aqueous phase.
C77 palmitoylation is required for Wnt3a activity (Willert, K. et al., Nature 423, 448-452 (2003)) and binding to both Fz and LRP6 (Komekado, H. et al., Genes Cells 12, 521-534 (2007); Cong, F. et al., Development 131, 5103-5115 (2004)), while S209 acylation is critical for Wnt3a secretion (Takada, R. et al., Dev Cell 11, 791-801 (2006)). Thus Tiki proteins may affect C77 palmitoylation but not S209 acylation. The palmitate adduct at C77 is the primary contributor to Wnt3a hydrophobicity because palmitoylated Wnt3a is partitioned in the Triton X-114 detergent phase whereas Wnt3a lacking the palmitate is soluble in the aqueous phase (Willert, K. et al., Nature 423, 448-452 (2003); Komekado, H. et al., Genes Cells 12, 521-534 (2007)).

[4] = target: T1, Recombinant human WNT3A protein (Homo sapiens, UniProt P56704); assay: Acyl-biotinyl exchange (ABE) analysis of WNT3A after in vitro incubation; type: biochemical; conditions: compared with WNT3A incubated with Krm2N
Method: FIG. 6I is a gel showing the results of ABE analysis of WNT3A after in vitro incubation with Krm2N or Tiki2N Biotinylation of WNT3A was much reduced after incubation with Tiki2N compared to that of WNT3A incubated with Krm2N.
Biotinylation of Wnt3a secreted in the presence of Tiki2 was much reduced compared to that of Wnt3a from control cells (FIG. 6C). This reduction of available thioester linkage indicates depalmitoylation of Wnt3a at a cysteine residue, e.g., C77, in the presence of Tiki2
(§1) Recombinant human Tiki2N, which is the ectodomain harboring the conserved Tiki domain (FIG. 6J), was purified, via tandem affinity procedures from HEK293T cell extracts or CM.

[5] = target: T1, Recombinant human WNT3A protein; assay: In vitro incubation of recombinant WNT3A with purified protein, Triton X-114 phase separation; type: biochemical; conditions: purified protein incubated with recombinant human WNT3A
Method: FIG. 6G is a gel showing that recombinant WNT3A was incubated with Krm2N or Tiki2N purified from WCL (top) or from CM (bottom) and was subjected to Triton X-114 phase separation.
FIG. 6H is a gel showing that Recombinant WNT3A was incubated with Krm2N or Tiki2N or Tiki2NΔ. purified from WCL and was subjected to Triton X-114 phase separation.
as §1

## LDLR: negative control, expressed from injected LDLR mRNA
[1]
  Cells displaying nuclear beta-catenin: 80%

B1: Wnt3a: Wnt ligand added to STF reporter cells (protein)
chain: SYPIWWSLAVGPQYSSLGSQPILCASIPGLVPKQLRFCRNYVEIMPSVAEGIKIGIQECQHQFRGRRWNCTTVHDSLAIFGPVLDKATRESAFVHAIASAGVAFAVTRSCAEGTAAICGCSSRHQGSPGKGWKWGGCSEDIEFGGMVSREFADARENRPDARSAMNRHNNEAGRQAIASHMHLKCKCHGLSGSCEVKTCWWSQPDFRAIGDFLKDKYDSASEMVVEKHRESRGWVETLRPRYTYFKVPTERDLVYYEASPNFCEPNPETGSFGTRDRTCNVSSHGIDGCDLLCCGRGHNARAERRREKCRCVFHWCCYVSCQECTRVYDVHTCK
[2]
  Induction of the STF reporter: 30-40 folds

B2: Tiki2N: Recombinant human Tiki2N, the ectodomain harboring the conserved Tiki domain (protein)
chain: RPQPPDGGQCRPPGSQRDLNSFLWTIRRDPPAYLFGTIHVPYTRVWDFIPDNSKAAFQASTRVYFELDLTDPYTISALASCQLLPHGENLQDVLPHELYWRLKRHLDYVKLMMPSWMTPAQRGKGLYADYLFNAIAGNWERKRPVWVMLMVNSLTERDVRFRGVPVLDLYLAQQAEKMKKTTGAVEQVEEQCHPLNNGLNFSQVLFALNQTLLQQESVRAGSLQASYTTEDLIKHYNCGDLSAVIFNHDTSQLPNFINTTLPPHEQVTAQEIDSYFRQELIYKRNERMGKRVMALLRENEDKICFFAFGAGHFLGNNTVIDILRQAGLEVDHTPAGQAIHSPAPQSPAPSPEGTSTSPAPVTPAAAVPEAPSVTPTAPPEDEDPALSPHLLLPDSLSQLEEFGRQRKWHKRQSTHQRPRQFNDLWVRIEDSTTASPPPLPLQPTHSSGTAKPPFQLSDQLQQQDPPG
modifications: left off: small tags and cut ends
notes: Recombinant human Tiki2N, the ectodomain harboring the conserved Tiki domain
[3]
  Partitioning of secreted Wnt3a in Triton X-114 phase separation: partitioned exclusively in the aqueous phase
[4]
  Biotinylation of WNT3A in ABE assay after in vitro incubation: biotinylated to a much less extent
[5]
  Partitioning of WNT3A in Triton X-114 phase separation after in vitro incubation: became segregated in the aqueous phase
